Test results published in patent US20040265972A1 (published 2004).

Target: T1, human TSH receptor stably expressed on Chinese Hamster Ovary (CHO) cells (CHO-hTSHR clone JP09 and clone JP26) (human, UniProt P16473 21-764)
T1 construct: whole, on cells; also called hTSH receptor; CHO-JPO9
Test: told in words; bioactivity assay on CHO-JPO9 cells expressing the TSH receptor

binding result: binds
B1: mutant TSH heterodimer of wild type human common α-subunit and mutant human TSH-β subunit βE6N (ligand)
alpha: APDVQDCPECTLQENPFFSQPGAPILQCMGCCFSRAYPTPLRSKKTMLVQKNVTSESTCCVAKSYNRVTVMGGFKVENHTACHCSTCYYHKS
beta: FCIPTNYTMHIERRECAYCLTINTTICAGYCMTRDINGKLFLPKYALSQDVCTYRDFIYRTVEIPGCPLHVAPYFSYPVALSCKCGKCNTDYSDCIHEAIKTNYCTKPQKSYLVGFSV
modifications: Both subunits are N-glycosylated (secreted from CHO-K1 cells). They form a noncovalent heterodimer. The letters carry neither feature.
notes: Transiently expressed in CHO-K1 cells
